The results in this text go back to the RNAGym collection of RNA variant scans (doi:10.1093/molbev/msab373).

B1: Azoarcus group I ribozyme (parent)
chain: GUGCCUUGCGCCGGGAAACCACGCAAGGGAUGGUGUCAAAUUCGGCGAAACCUAAGCGCCCGCCCGGGCGUAUGGCAACGCCGAGCCAAGCUUCGGCGCCUGCGCCGAUGAAGGUGUAGAGACUAGACGGCACCCACCUAAGGCAAACGCUAUGGUGAAGGCAUAGUCCAGGGAGUGGCGAAAGUCACACAAACCGG

In the series the parent is B1. In words: reverse-splicing fitness (ratio to wild type); higher = more active; in vitro selection; Mg2+ level not given. In a few lines: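 An in vitro group I ribozyme library with randomized positions was T7-transcribed and gel-purified. In triplicate, 10 pmol RNA in EPPS pH 7.5 was reacted with 50 pmoles of a 30-nt RNA substrate for 1 h at 37 °C across several added MgCl2 levels (1–48 mM), then stopped with EDTA. Products were reverse transcribed from a substrate-complementary primer, PCR-amplified and sequenced (HiSeq 4000). Fitness is a variant's read proportion after selection over that before, normalised to wild type.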
In the case of GUGCCUUGCGCCGGGAAACCACGCAAGGGAUGGUGUCAAAUUCGGCGAAACCUAAGCGCCCGCCCGGGCGUAUGGCAACGCUGAGCCAAGCUUCGGCGCCUGCGCCGAUGUAGGUGUAGGGACUAGACGGCACCCACCUAAGGCAAACGCUAUGGUGAAGGCAUAGUCGAGGGAGGGGCGAAAGUCACACAAACCGG [C82U A111U A120G C169G U176G], the reverse-splicing fitness is 0.00437.

Regarding GUGCCUUGCGCCGGGAAACCACGCAAGGGAUGGUGUCAAAUUCGGCGAAACCUAAGCGCCCGCCCGGGCGUAUGGCAACGCGGAGCCAAGCUUCGGCGCCUGCGCCGAUGAAGGUGUAGGGACUAGACGGCACCCACCUAAGGCCAACGUUAUGGUGAAGGCAUAGUCAAGGGAGCGGCGAAAGUCACACAAACCGG [C82G A120G A145C C150U C169A U176C], the reverse-splicing fitness is 0.00669.

Consider GUGCCUUGCGCCGGGAAACCACGCAAGGGAUGGUGUCAAAUUCGGCGAAACCUAAGCGCCCGCCCGGGCGUAUGGCAACGCCGAGCCAAGCUUCGGCGCCUGCGCCGAUGGAGGUGUAGAGACUAGACGGCACCCACCUAAGGCCAACGUUAUGGUGAAGGCAUAGUCUAGGGAGGGGCGAAAGUCACACAAACCGG [A111G A145C C150U C169U U176G], for which the reverse-splicing fitness amounted to 0.0062.

GUGCCUUGCGCCGGGAAACCACGCAAGGGAUGGUGUCAAAUUCGGCGAAACCUAAGCGCCCGCCCGGGCGUAUGGCAACGCGGAGCCAAGCUUCGGCGCCUGCGCCGAUGUAGGUGUAGGGACUAGACGGCACCCACCUAAGGCCAACGAUAUGGUGAAGGCAUAGUCUAGGGAGAGGCGAAAGUCACACAAACCGG [C82G A111U A120G A145C C150A C169U U176A]: the reverse-splicing fitness is 0.0211.

Take GUGCCUUGCGCCGGGAAACCACGCAAGGGAUGGUGUCAAAUUCGGCGAAACCUAAGCGCCCGCCCGGGCGUAUGGCAACGCGGAGCCAAGCUUCGGCGCCUGCGCCGAUGGAGGUGUAGAGACUAGACGGCACCCACCUAAGGCGAACGCUAUGGUGAAGGCAUAGUCGAGGGAGAGGCGAAAGUCACACAAACCGG [C82G A111G A145G C169G U176A]: the reverse-splicing fitness came out at 0.016.

In the case of GUGCCUUGCGCCGGGAAACCACGCAAGGGAUGGUGUCAAAUUCGGCGAAACCUAAGCGCCCGCCCGGGCGUAUGGCAACGCUGAGCCAAGCUUCGGCGCCUGCGCCGAUGCAGGUGUAGAGACUAGACGGCACCCACCUAAGGCUAACGGUAUGGUGAAGGCAUAGUCAAGGGAGUGGCGAAAGUCACACAAACCGG [C82U A111C A145U C150G C169A], the reverse-splicing fitness was found to be 0.00756.

Turning to GUGCCUUGCGCCGGGAAACCACGCAAGGGAUGGUGUCAAAUUCGGCGAAACCUAAGCGCCCGCCCGGGCGUAUGGCAACGCCGAGCCAAGCUUCGGCGCCUGCGCCGAUGAAGGUGUAGGGACUAGACGGCACCCACCUAAGGCCAACGAUAUGGUGAAGGCAUAGUCCAGGGAGUGGCGAAAGUCACACAAACCGG [A120G A145C C150A], the reverse-splicing fitness stood at 0.0374.

With GUGCCUUGCGCCGGGAAACCACGCAAGGGAUGGUGUCAAAUUCGGCGAAACCUAAGCGCCCGCCCGGGCGUAUGGCAACGCAGAGCCAAGCUUCGGCGCCUGCGCCGAUGGAGGUGUAGAGACUAGACGGCACCCACCUAAGGCAAACGUUAUGGUGAAGGCAUAGUCGAGGGAGCGGCGAAAGUCACACAAACCGG [C82A A111G C150U C169G U176C], the reverse-splicing fitness worked out at 0.0194.

Turning to GUGCCUUGCGCCGGGAAACCACGCAAGGGAUGGUGUCAAAUUCGGCGAAACCUAAGCGCCCGCCCGGGCGUAUGGCAACGCUGAGCCAAGCUUCGGCGCCUGCGCCGAUGAAGGUGUAGGGACUAGACGGCACCCACCUAAGGCUAACGGUAUGGUGAAGGCAUAGUCUAGGGAGCGGCGAAAGUCACACAAACCGG [C82U A120G A145U C150G C169U U176C], the reverse-splicing fitness stood at 0.0108.

As to GUGCCUUGCGCCGGGAAACCACGCAAGGGAUGGUGUCAAAUUCGGCGAAACCUAAGCGCCCGCCCGGGCGUAUGGCAACGCUGAGCCAAGCUUCGGCGCCUGCGCCGAUGUAGGUGUAGUGACUAGACGGCACCCACCUAAGGCCAACGAUAUGGUGAAGGCAUAGUCAAGGGAGAGGCGAAAGUCACACAAACCGG [C82U A111U A120U A145C C150A C169A U176A], the reverse-splicing fitness was 0.00203.

Take GUGCCUUGCGCCGGGAAACCACGCAAGGGAUGGUGUCAAAUUCGGCGAAACCUAAGCGCCCGCCCGGGCGUAUGGCAACGCGGAGCCAAGCUUCGGCGCCUGCGCCGAUGGAGGUGUAGGGACUAGACGGCACCCACCUAAGGCAAACGGUAUGGUGAAGGCAUAGUCUAGGGAGAGGCGAAAGUCACACAAACCGG [C82G A111G A120G C150G C169U U176A]: the reverse-splicing fitness worked out at 0.0119.

As for GUGCCUUGCGCCGGGAAACCACGCAAGGGAUGGUGUCAAAUUCGGCGAAACCUAAGCGCCCGCCCGGGCGUAUGGCAACGCAGAGCCAAGCUUCGGCGCCUGCGCCGAUGCAGGUGUAGCGACUAGACGGCACCCACCUAAGGCGAACGUUAUGGUGAAGGCAUAGUCUAGGGAGGGGCGAAAGUCACACAAACCGG [C82A A111C A120C A145G C150U C169U U176G], the reverse-splicing fitness stood at 0.00717.

Take GUGCCUUGCGCCGGGAAACCACGCAAGGGAUGGUGUCAAAUUCGGCGAAACCUAAGCGCCCGCCCGGGCGUAUGGCAACGCCGAGCCAAGCUUCGGCGCCUGCGCCGAUGAAGGUGUAGGGACUAGACGGCACCCACCUAAGGCUAACGAUAUGGUGAAGGCAUAGUCUAGGGAGCGGCGAAAGUCACACAAACCGG [A120G A145U C150A C169U U176C]: the reverse-splicing fitness was found to be 0.0534.

As for GUGCCUUGCGCCGGGAAACCACGCAAGGGAUGGUGUCAAAUUCGGCGAAACCUAAGCGCCCGCCCGGGCGUAUGGCAACGCGGAGCCAAGCUUCGGCGCCUGCGCCGAUGGAGGUGUAGUGACUAGACGGCACCCACCUAAGGCAAACGCUAUGGUGAAGGCAUAGUCGAGGGAGAGGCGAAAGUCACACAAACCGG [C82G A111G A120U C169G U176A], the reverse-splicing fitness turned out to be 0.00289.

Take GUGCCUUGCGCCGGGAAACCACGCAAGGGAUGGUGUCAAAUUCGGCGAAACCUAAGCGCCCGCCCGGGCGUAUGGCAACGCAGAGCCAAGCUUCGGCGCCUGCGCCGAUGUAGGUGUAGGGACUAGACGGCACCCACCUAAGGCCAACGAUAUGGUGAAGGCAUAGUCGAGGGAGCGGCGAAAGUCACACAAACCGG [C82A A111U A120G A145C C150A C169G U176C]: the reverse-splicing fitness is 0.0151.
